T1: rat GFRalpha3 (rat, UniProt O35118 29-370 (mouse entry))
T1 construct: Expressed on transiently transfected HEK 293 EBNA cells; also called RetL3
T1 chain: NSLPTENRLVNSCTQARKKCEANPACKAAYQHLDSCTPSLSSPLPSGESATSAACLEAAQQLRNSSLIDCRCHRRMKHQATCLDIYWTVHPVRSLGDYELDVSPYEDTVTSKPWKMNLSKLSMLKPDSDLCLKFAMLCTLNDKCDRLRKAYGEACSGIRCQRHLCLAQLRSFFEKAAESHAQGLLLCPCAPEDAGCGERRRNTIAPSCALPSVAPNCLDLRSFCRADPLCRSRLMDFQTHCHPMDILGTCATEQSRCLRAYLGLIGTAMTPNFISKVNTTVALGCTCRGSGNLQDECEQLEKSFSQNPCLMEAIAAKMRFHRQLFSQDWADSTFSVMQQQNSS

T2: rat GFRalpha1 (rat, UniProt Q62997 25-430)
T2 construct: whole, on cells; Expressed on transiently transfected HEK 293 EBNA cells
T2 sequence (looked up): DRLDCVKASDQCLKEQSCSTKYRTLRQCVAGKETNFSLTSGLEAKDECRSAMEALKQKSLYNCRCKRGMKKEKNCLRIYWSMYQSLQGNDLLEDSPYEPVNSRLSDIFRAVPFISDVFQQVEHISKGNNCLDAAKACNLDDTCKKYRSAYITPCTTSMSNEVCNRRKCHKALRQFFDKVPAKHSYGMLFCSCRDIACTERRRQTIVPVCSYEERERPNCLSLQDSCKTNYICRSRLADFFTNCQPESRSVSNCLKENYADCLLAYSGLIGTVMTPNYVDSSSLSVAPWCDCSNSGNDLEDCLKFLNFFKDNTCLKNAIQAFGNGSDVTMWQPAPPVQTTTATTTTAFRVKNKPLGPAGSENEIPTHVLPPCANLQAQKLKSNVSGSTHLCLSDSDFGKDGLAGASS

T3: rat GFRalpha2 (rat, UniProt O35977 22-444)
T3 construct: whole, on cells; Expressed on transiently transfected HEK 293 EBNA cells
T3 sequence: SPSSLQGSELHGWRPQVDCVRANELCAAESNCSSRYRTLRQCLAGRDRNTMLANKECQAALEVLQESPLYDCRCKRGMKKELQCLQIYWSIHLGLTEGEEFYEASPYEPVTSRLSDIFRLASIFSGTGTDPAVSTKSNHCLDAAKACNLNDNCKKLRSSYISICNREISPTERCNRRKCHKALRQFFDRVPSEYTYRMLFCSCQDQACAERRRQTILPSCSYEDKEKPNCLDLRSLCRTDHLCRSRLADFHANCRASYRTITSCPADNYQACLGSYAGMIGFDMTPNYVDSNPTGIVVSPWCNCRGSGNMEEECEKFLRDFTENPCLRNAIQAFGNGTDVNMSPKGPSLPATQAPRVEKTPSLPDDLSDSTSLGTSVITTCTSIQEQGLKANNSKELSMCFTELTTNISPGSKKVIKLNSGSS

T4: murine GFRalpha3 (murine, UniProt O35118 29-371)
T4 construct: also called murine GFRalpha3 on NB41A3-L3 cells
T4 sequence: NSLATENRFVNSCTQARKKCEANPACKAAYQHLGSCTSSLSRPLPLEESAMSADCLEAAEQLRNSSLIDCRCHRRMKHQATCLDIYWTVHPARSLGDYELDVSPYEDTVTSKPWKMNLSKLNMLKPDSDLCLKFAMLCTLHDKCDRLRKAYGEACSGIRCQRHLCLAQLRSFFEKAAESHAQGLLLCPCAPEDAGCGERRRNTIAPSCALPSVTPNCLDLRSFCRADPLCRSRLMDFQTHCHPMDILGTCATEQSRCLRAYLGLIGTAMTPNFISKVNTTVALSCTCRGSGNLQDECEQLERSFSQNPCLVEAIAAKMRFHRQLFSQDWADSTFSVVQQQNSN

B1: Fab fragment MOR02683 (Fab, V domains shown)
VH: QVQLVESGGGLVQPGGSLRLSCAASGFTFSNYTMHWVRQAPGKGLEWVSVISYDGSSTYYADSVKGRFTISRDNSKNTLYLQMNSLRAEDTAVYYCARIVRMDIWGQGTLVTVSS
VL: DIVLTQSPATLSLSPGERATLSCRASQSVNSHYLAWYQQKPGQAPRLLIYGASNRATGVPARFSGSGSGTDFTLTISSLEPEDFATYYCQQMDGFPFTFGQGTKVEIKR
notes: From the HuCAL GOLD Fab phage display library; also called anti-GFRalpha3 Fab fragment MOR02683
B2: rat Neublastin (113 amino acid form) (ligand)
chain: AGTRSSRARATDARGCRLRSQLVPVSALGLGHSSDELIRFRFCSGSCRRARSPHDLSLASLLDAGALRSPPGSRPISQPCCRPTRYEAVSFMDVNSTWRTVDHLSATACGCLG

Assays:
rat GFRalpha3 = target: T1, rat GFRalpha3; experiment: FACS
rat GFRalpha1 = target: T2, rat GFRalpha1; experiment: FACS on transiently transfected HEK 293 EBNA cells
Protocol: (§1) HEK 293 EBNA cells were transiently transfected with an empty vector, a vector encoding rat GFRalpha1, a vector encoding rat GFRalpha2, or a vector encoding rat GFRalpha3. These cells were stained with 10 ug/ml of the anti-GFRalpha3 polyclonal antibody R11 (a rabbit polyclonal antibody generated by immunization with the peptide […] (SEQ ID NO:14), which contains a murine GFRalpha3 sequence and a heterologous GC sequence at its carboxy terminus) or with 10 ug/ml MOR02683. The vector-transfected cells shifted slightly above the unstained baseline because the HEK 293 EBNA cells endogenously expresses GFRalpha3 (FIGS. 2A and 2B). […] The lack of shift of the GFRalpha1-transfected cells and GFRalpha2-transfected cells as compared to vector-transfected cells indicated the specificity of MOR02683 for GFRalpha3 over its close family members (FIGS. 2A and 2B).

rat GFRalpha2 = target: T3, rat GFRalpha2; experiment: FACS on transiently transfected HEK 293 EBNA cells
Protocol: as §1

murine GFRalpha3-Ig = murine GFRalpha3-Ig (murine); experiment: inhibition of Neublastin-GFRalpha3-Ret ternary complex formation: MOR02683 preincubated with 1 ug/ml murine GFRalpha3-Ig, 50 ng/ml rat Neublastin and rat Ret-AP conditioned media; capture on an anti-human Fc plate; AP chemiluminescence
Protocol: MOR02683 was preincubated with 1 ug/ml murine GFRalpha3-Ig ([…] […] […] […] […] […] […] […] […] […] […] […]; SEQ ID NO:19) and 50 ng/ml rat Neublastin (113 amino acid form; […] […] TACGCLG; SEQ ID NO:20) in rat Ret-alkaline phosphatase ([…] […] […] […] […] […] […] […] […] […] […] […] […] […] […] […] […] […] […] […] […] […]; SEQ ID NO:21) conditioned media for an hour before being added to the coated plate for another hour. The alkaline phosphatase (AP) was visualized with a chemiluminescent substrate and the plate was read on a luminometer.

murine GFRalpha3 = target: T4, murine GFRalpha3; experiment: Neublastin competition binding on NB41A3-L3 cells (murine GFRalpha3 plus endogenous murine Ret): 0-10 uM rat Neublastin for 10 min at 4 C, unoccupied GFRalpha3 probed with 10 ug/ml biotinylated MOR02683, FACS with PE-Streptavidin, hyperbolic fit
Protocol: NB41A3-L3 cells were incubated with different concentrations of rat Neublastin for 10 minutes at 4° C. During the incubation period, the binding reaction of Neublastin to GFRalpha3 and Ret on the cell surface reaches equilibrium. Cells were then quenched with a high concentration (10 ug/ml) of biotinylated MOR02683 for 2 minutes. MOR02683 can only bind to GFRalpha3 receptors that are not already occupied by Neublastin and thus acts as a probe for unoccupied GFRalpha3 receptors. During the short incubation time of the quenching reaction, no re-equilibration between Neublastin and MOR02683 binding occurs. The amount of MOR02683 bound to GFRalpha3 was then quantified via FACS analysis using PE-Streptavidin as a secondary reagent.
Neublastin competition binding was used to measure Neublastin binding affinities to receptors on the cell surface. NB41A3-L3 cells were incubated with 0-10 uM rat Neublastin for 10 minutes at 4° C. Cells were then quenched with 10 ug/ml biotinylated MOR02683 for 2 minutes. The amount of MOR02683 bound to GFRalpha3 was quantified by FACS using PE-Streptavidin as a secondary reagent. […] A Neublastin concentration-dependent reduction in the subsequent binding of MOR02683 was observed, but not with the control antibody MOR02682 (FIG. 8).

Binder | binding result (rat GFRalpha3) | binding result (rat GFRalpha1) | binding result (rat GFRalpha2) | EC50 (murine GFRalpha3-Ig) | Kd (murine GFRalpha3)
B1 | binds | no binding (tested: 10 ug/ml) | no binding (tested: 10 ug/ml) | ~0.25 µg/mL | 
B2 |  |  |  |  | ~200 nM

From patent publication US20090202562A1 (Biogen, published 2009)
